{"source": "patent US20240317834A1", "about": "“COMPOSITIONS AND METHODS FOR NEUROLOGICAL DISEASES” (CODA BIOTHERAPEUTICS, INC., priority 2020, published 2024)", "key": {"[1]": {"tested_on": "Lenti-X 293T cells", "test": "YFP fluorescence quenching anion reporter plate reader assay of engineered receptors stimulated with acetylcholine or a non-native ligand", "type": "cell-based", "outline": "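YFP quench was followed for about 1 min 43 s after ligand delivered in iodide-based ECS, pH 7.2. Values are end-of-read fluorescence (last 10 s) divided by the pre-ligand baseline (15 s). Cells were LX293T, transfected with receptor DNA a day before the assay.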"}, "[2]": {"tested_on": "rat DRG neurons", "test": "Rheobase shift and evoked action potentials in rat DRG neurons (current clamp)", "type": "cell-based", "procedure": "Using whole cell manual patch clamp electrophysiology in HEK293 cells, rat DRG neurons and rat hippocampal neurons, the EC50 of the various engineered receptors disclosed herein to Ach and non-native ligands was measured using the Hill equation with peak current measurements from escalating doses of ligand. The rheobase shift was also measured in rat DRG neurons, which reflects the efficacy of the receptors. To calculate the rheobase, first, the amount of current that can produce an action potential was determined. Then the ligand was added, followed by a step wise increase in the current injected up to 700 pA.\nFor manual patch clamp experiments, Cells plated on coverslips were visualized at 10× and 40× on an inverted fluorescence microscope (Olympus). Recordings were made with an Axopatch 200B amplifier and Digidata 1550B (Molecular Devices) at RT using 3-6 MOhm glass patch electrodes (Sutter, BF150-86-10). Unless otherwise stated, recordings were made in extracellular solution (ECS) containing: 140 mM sodium chloride, 4 mM potassium chloride, 1 mM magnesium chloride, 2 mM calcium chloride, 10 mM HEPES, and 10 mM D-(+)-glucose (pH=7.3 with sodium hydroxide, osmolarity=305−315 mOsm). An 8-line reservoir (AutoMate Scientific) in combination with an 8-channel zero-dead-volume perfusion pencil (AutoMate Scientific) was used for perfusion. Data was acquired using pClamp software (Molecular Devices). Traces were either analyzed in Clampfit (Molecular Devices) or using custom Python code. Plotting and statistics were performed in GraphPad Prism.\nDRG rheobase experiments were performed in current clamp mode using a potassium-based internal solution containing: 100 mM potassium D-gluconate, 28 mM potassium chloride, 1 mM magnesium chloride hexahydrate, 5 mM magnesium ATP, 10 mM HEPES, and 0.5 mM EGTA (pH=7.2 with potassium hydroxide, osmolarity=290-295 mOsm, calculated liquid junction potential=−13.5 mV). To measure DRG input resistance and rheobase, 500 ms current steps (−200 pA to 700 pA) were applied the membrane in the presence and absence of a compound. No holding current was applied to the membrane for cells included in the final datasets. Data were acquired at 10 kHz, with Bessel filter at 2 kHz and series resistance compensation at 100%. Rheobase was defined as the smallest depolarizing current injection required to cause an action potential to fire in the cell. In a subset of cells, the rheobase was ambiguous, since the action potential appeared to be graded in amplitude. In these cases, a […] of the trace clarified the rheobase. Input resistance was measured from the negative current injections, calculated as the difference in membrane potential at steady state divided by the current injection amplitude and then averaged across the four negative current steps for each recording. Resting membrane potential was measured from the first 100 ms of each sweep, averaged for each recording, and corrected for liquid junction potential. One-way ANOVA with multiple comparisons was used to test for significance of difference in rheobase and input resistance between baseline, drug, and wash conditions."}}, "data": [{"molecule": "CODA1027: engineered chimeric LGIC receptor, R101F, L131D in SEQ ID NO: 33 (protein, synthetic sequence of chimeric LGIC) MRCSPGGVWLALAASLLHVSLQGEFQRKLYKELVKNYNPLERPVANDSQPLTVYFSLSLLQIMDVDEKNQVLTTNIWLQMSWTDHYLQWNVSEYPGVKTVFFPDGQIWKPDILLYNSADERFDATFHTNVDVNSSGHCQYLPPGIFKSSCPMDLKNFPMDVQTCKLKFGSWSYGGWSLDLQMQEADISGYIPNGEWDLVGIPGKRSERFYECCKEPYPDVTFTVTMRRRMGYYLIQMYIPSLLIVILSWISFWINMDAAPARVGLGITTVLTMTTQSSGSRASLPKVSYVKAIDIWMAVCLLFVFSALLEYAAVNFVSRQHKELLRFRRKRRHHKSPMLNLFQEDEAGEGRFNFSAYGMGPACLQAKDGISVKGANNSNTTNPPPAPSKSPEEMRKLFIQRAKKIDKISRIGFPMAFLIFNMFYWIIYKIVRREDVHNQ", "values": [{"measurement": "YFP fluorescence quenching using CNL001", "setting": "[1]; 1 nM CNL001, first column", "value": 24.049, "unit": "%"}, {"measurement": "YFP fluorescence quenching using CNL001", "setting": "[1]; 1 nM CNL001, second column", "value": 36.755, "unit": "%"}, {"measurement": "YFP fluorescence quenching using TC-5619/Bradanicline", "setting": "[1]; 1 nM brd", "value": "−10.07", "unit": "%"}, {"measurement": "YFP fluorescence quenching using TC-5619/Bradanicline", "setting": "[1]; 3 nM brd", "value": "−0.8", "unit": "%"}, {"measurement": "YFP fluorescence quenching using Varenicline", "setting": "[1]; 3 nM var, first column", "value": "−3.367"}, {"measurement": "YFP fluorescence quenching using Varenicline", "setting": "[1]; 3 nM var, second column", "value": "−0.431"}, {"measurement": "YFP fluorescence quenching using CNL001", "setting": "[1]; 10 nM CNL001, first column", "value": 52.927, "unit": "%"}, {"measurement": "YFP fluorescence quenching using CNL001", "setting": "[1]; 10 nM CNL001, second column", "value": 61.449, "unit": "%"}, {"measurement": "YFP fluorescence quenching using TC-5619/Bradanicline", "setting": "[1]; 10 nM brd", "value": 1.74, "unit": "%"}, {"measurement": "YFP fluorescence quenching using TC-5619/Bradanicline", "setting": "[1]; 30 nM brd", "value": 53.95, "unit": "%"}, {"measurement": "YFP fluorescence quenching using Facinicline", "setting": "[1]; 30 nM fac", "value": "−10.05"}, {"measurement": "YFP fluorescence quenching using Varenicline", "setting": "[1]; 30 nM var, first column", "value": "−0.761"}, {"measurement": "YFP fluorescence quenching using Varenicline", "setting": "[1]; 30 nM var, second column", "value": 2.989}, {"measurement": "YFP fluorescence quenching using CNL001", "setting": "[1]; 50 nM CNL001, first column", "value": 67.308, "unit": "%"}, {"measurement": "YFP fluorescence quenching using CNL001", "setting": "[1]; 50 nM CNL001, second column", "value": 68.77, "unit": "%"}, {"measurement": "YFP fluorescence quenching using ABT-126", "setting": "[1]; 50 nM abt", "value": "−11.89", "unit": "%"}, {"measurement": "YFP fluorescence quenching using CNL001", "setting": "[1]; 100 nM CNL001, first column", "value": 69.049, "unit": "%"}, {"measurement": "YFP fluorescence quenching using CNL001", "setting": "[1]; 100 nM CNL001, second column", "value": 71.613, "unit": "%"}, {"measurement": "YFP fluorescence quenching using CNL002", "setting": "[1]; 100 nM CNL002", "value": 7.75, "unit": "%"}, {"measurement": "YFP fluorescence quenching using ABT-126", "setting": "[1]; 100 nM abt", "value": "−16.07", "unit": "%"}, {"measurement": "YFP fluorescence quenching using AZD-0328", "setting": "[1]; 100 nM azd0328", "value": "−4.76", "unit": "%"}, {"measurement": "YFP fluorescence quenching using ABT-126", "setting": "[1]; 300 nM abt", "value": "−11.21", "unit": "%"}, {"measurement": "YFP fluorescence quenching using AZD-0328", "setting": "[1]; 300 nM azd0328", "value": "−7.52", "unit": "%"}, {"measurement": "YFP fluorescence quenching using TC-5619/Bradanicline", "setting": "[1]; 300 nM brd", "value": 76.74, "unit": "%"}, {"measurement": "YFP fluorescence quenching using Facinicline", "setting": "[1]; 300 nM fac", "value": "−12.54"}, {"measurement": "YFP fluorescence quenching using Varenicline", "setting": "[1]; 300 nM var, first column", "value": 2.966}, {"measurement": "YFP fluorescence quenching using Varenicline", "setting": "[1]; 300 nM var, second column", "value": 10.211}, {"measurement": "YFP fluorescence quenching using Varenicline", "setting": "[1]; 500 nM var, first column", "value": 15.278}, {"measurement": "YFP fluorescence quenching using Varenicline", "setting": "[1]; 500 nM var, second column", "value": 20.84}, {"measurement": "YFP fluorescence quenching using CNL001", "setting": "[1]; 1 uM CNL001, first column", "value": 71.811, "unit": "%"}, {"measurement": "YFP fluorescence quenching using CNL001", "setting": "[1]; 1 uM CNL001, second column", "value": 69.907, "unit": "%"}, {"measurement": "YFP fluorescence quenching using CNL002", "setting": "[1]; 1 uM CNL002", "value": 61.97, "unit": "%"}, {"measurement": "YFP fluorescence quenching using ABT-126", "setting": "[1]; 1 uM abt", "value": "−9.38", "unit": "%"}, {"measurement": "YFP fluorescence quenching using TC-6987", "setting": "[1]; 1 uM tc6987", "value": 0.88}, {"measurement": "YFP fluorescence quenching using Varenicline", "setting": "[1]; 1 uM var, first column", "value": 37.104}, {"measurement": "YFP fluorescence quenching using Varenicline", "setting": "[1]; 1 uM var, second column", "value": 42.439}, {"measurement": "YFP fluorescence quenching using TC-6987", "setting": "[1]; 10 uM tc6987", "value": 56.27}, {"measurement": "YFP fluorescence quenching using CNL002", "setting": "[1]; 30 uM CNL002", "value": 65.77, "unit": "%"}, {"measurement": "YFP fluorescence quenching using AZD-0328", "setting": "[1]; 30 uM azd0328", "value": 74.9, "unit": "%"}, {"measurement": "YFP fluorescence quenching using Facinicline", "setting": "[1]; 30 uM fac", "value": 70.96}, {"measurement": "YFP fluorescence quenching using TC-6987", "setting": "[1]; 500 uM tc6987", "value": 71.3}, {"measurement": "percent quench of YFP fluorescence, 30 nM TC-6683", "setting": "[1]; TC-6683 30 nM", "value": 1.189, "unit": "%"}, {"measurement": "percent quench of YFP fluorescence, 300 nM TC-6683", "setting": "[1]; TC-6683 300 nM", "value": 0.939, "unit": "%"}, {"measurement": "percent quench of YFP fluorescence, 3 uM TC-6683", "setting": "[1]; TC-6683 3 uM", "value": 1.327, "unit": "%"}, {"measurement": "percent quench of YFP fluorescence, 30 uM TC-6683", "setting": "[1]; TC-6683 30 uM", "value": "−0.845", "unit": "%"}, {"measurement": "percent quench of YFP fluorescence, 100 uM TC-6683", "setting": "[1]; TC-6683 100 uM", "value": "−3.136", "unit": "%"}, {"measurement": "percent quench of YFP fluorescence, 10 uM ach", "setting": "[1]; acetylcholine 10 uM", "value": "−1.62", "unit": "%"}, {"measurement": "percent quench of YFP fluorescence, 50 uM ach", "setting": "[1]; acetylcholine 50 uM", "value": "−1.6", "unit": "%"}, {"measurement": "percent quench of YFP fluorescence, 100 uM ach", "setting": "[1]; acetylcholine 100 uM", "value": "−2.62", "unit": "%"}, {"measurement": "percent quench of YFP fluorescence, 300 uM ach", "setting": "[1]; acetylcholine 300 uM", "value": "−6.12", "unit": "%"}, {"measurement": "percent quench of YFP fluorescence, 500 uM ach", "setting": "[1]; acetylcholine 500 uM", "value": "−7.71", "unit": "%"}, {"measurement": "percent quench of YFP fluorescence, 1 mM ach", "setting": "[1]; acetylcholine 1 mM", "value": "−5.73", "unit": "%"}, {"measurement": "percent quench of YFP fluorescence, 3 mM ach", "setting": "[1]; acetylcholine 3 mM", "value": 33.69, "unit": "%"}, {"measurement": "Rheobase Shift; Rat DRG Neurons, +TC-5619 @ EC90", "setting": "[2]; +TC-5619 @ EC90", "value": "638 ± 63", "unit": "pA"}, {"measurement": "Rheobase Shift; Rat DRG Neurons, Baseline", "setting": "[2]; Baseline, no ligand", "value": "100 ± 23", "unit": "pA"}]}]}
